Experimental data taken from US20250019438A1 (AstraZeneca / MedImmune, published 2025).

Biological target: Biotinylated recombinant human CD3εδ (Acro Biosystems, CDD-H82W6) (human) (UniProt P07766)
Experiment: Octet BLI, biotinylated CD3εδ on streptavidin sensors, 1:1 model

Biotinylated recombinant human CD3εδ (Acro Biosystems, CDD-H82W6) (human), sequence (P07766 23-126, stated change not applied, chain 1 of 2): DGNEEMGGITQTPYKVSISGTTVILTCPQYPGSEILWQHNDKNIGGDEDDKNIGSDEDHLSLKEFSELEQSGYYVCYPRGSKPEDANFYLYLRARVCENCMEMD
Biotinylated recombinant human CD3εδ (Acro Biosystems, CDD-H82W6) (human), sequence (P04234 22-105, stated change not applied, chain 2 of 2, further chain): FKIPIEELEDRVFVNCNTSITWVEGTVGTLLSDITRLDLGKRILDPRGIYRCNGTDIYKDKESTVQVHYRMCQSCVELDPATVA

Binder	Kd [nM]	koff [s⁻¹]	kon [M⁻¹ s⁻¹]
EGFR-CD3 DuetMab with anti-CD3 variant AZ Vκ 17 + AZ VH E82 (bispecific antibody, part only; not given: anti-EGFR arm, constant regions, V domains shown, not shown: another chain or arm of the molecule; a dimerising Fc or GST; small tags and cut ends) VH: EVQLVESGGALVKPGGSLRLSCAASGFTFTEAWMHWVRQAPGKQLEWVAQIKDRSQTYATYYAESVKGRFTISRDDSKNTLYLQMNSLKTEDTAVYYCRGVYYANTPFDYWGQGTLVTVSS VL: DIVMTQSPLSLPVTPGEPASISCRSSQSLVHNTGNTYLSWYLQKPGQSPQSLIYKVSNRASGVPDRFSGSGSGTDFTLKISRVEAEDVGVYYCGQGTQAPFTFGSGTKVEIK	4610	0.033	7140
EGFR-CD3 DuetMab with anti-CD3 variant AZ Vκ 17 + AZ VH R75 (bispecific antibody, part only; not given: anti-EGFR arm, constant regions, V domains shown, not shown: another chain or arm of the molecule; a dimerising Fc or GST; small tags and cut ends) VH: EVQLVESGGALVKPGGSLRLSCAASGFTFTRAWMHWVRQAPGKQLEWVAQIKDRSQTYATYYAESVKGRFTISRDDSKNTLYLQMNSLKTEDTAVYYCRGVYYANAPFDYWGQGTLVTVSS VL: DIVMTQSPLSLPVTPGEPASISCRSSQSLVHNTGNTYLSWYLQKPGQSPQSLIYKVSNRASGVPDRFSGSGSGTDFTLKISRVEAEDVGVYYCGQGTQAPFTFGSGTKVEIK	266	0.00644	24200
EGFR-CD3 DuetMab with anti-CD3 variant AZ Vκ 29 + AZ VH E82 (bispecific antibody, part only; not given: anti-EGFR arm, constant regions, V domains shown, not shown: another chain or arm of the molecule; a dimerising Fc or GST; small tags and cut ends) VH: EVQLVESGGALVKPGGSLRLSCAASGFTFTEAWMHWVRQAPGKQLEWVAQIKDRSQTYATYYAESVKGRFTISRDDSKNTLYLQMNSLKTEDTAVYYCRGVYYANTPFDYWGQGTLVTVSS VL: DIVMTQSPLSLPVTPGEPASISCRSSQSLVHNTGNTYLSWYLQKPGQSPQSLIYKVSNRASGVPDRFSGSGSGTDFTLKISRVEAEDVGVYYCGQGTQFPFTFGSGTKVEIK	5000	0.0755	15100
EGFR-CD3 DuetMab with anti-CD3 variant AZ Vκ 17 + AZ VH E79 (bispecific antibody, part only; not given: anti-EGFR arm, constant regions, V domains shown, not shown: another chain or arm of the molecule; a dimerising Fc or GST; small tags and cut ends) VH: EVQLVESGGALVKPGGSLRLSCAASGFTFTEAWMHWVRQAPGKQLEWVAQIKDRSQTYATYYAESVKGRFTISRDDSKNTLYLQMNSLKTEDTAVYYCRGVYYAVTPFDYWGQGTLVTVSS VL: DIVMTQSPLSLPVTPGEPASISCRSSQSLVHNTGNTYLSWYLQKPGQSPQSLIYKVSNRASGVPDRFSGSGSGTDFTLKISRVEAEDVGVYYCGQGTQAPFTFGSGTKVEIK	5620	0.0497	8850
EGFR-CD3 DuetMab with anti-CD3 variant AZ Vκ 26 + AZ VH SN75 (bispecific antibody, part only; not given: anti-EGFR arm, constant regions, V domains shown, not shown: another chain or arm of the molecule; a dimerising Fc or GST; small tags and cut ends) VH: EVQLVESGGALVKPGGSLRLSCAASGFTFSNAWMHWVRQAPGKQLEWVAQIKDRSQTYATYYAESVKGRFTISRDDSKNTLYLQMNSLKTEDTAVYYCRGVYYANAPFDYWGQGTLVTVSS VL: DIVMTQSPLSLPVTPGEPASISCRSSQSLVHNTGNTYLSWYLQKPGQSPQSLIYKVSNRASGVPDRFSGSGSGTDFTLKISRVEAEDVGVYYCGQGTQAPFSFGSGTKVEIK	949	0.0155	16300
EGFR-CD3 DuetMab with anti-CD3 variant AZ Vκ 29 + AZ VH E79 (bispecific antibody, part only; not given: anti-EGFR arm, constant regions, V domains shown, not shown: another chain or arm of the molecule; a dimerising Fc or GST; small tags and cut ends) VH: EVQLVESGGALVKPGGSLRLSCAASGFTFTEAWMHWVRQAPGKQLEWVAQIKDRSQTYATYYAESVKGRFTISRDDSKNTLYLQMNSLKTEDTAVYYCRGVYYAVTPFDYWGQGTLVTVSS VL: DIVMTQSPLSLPVTPGEPASISCRSSQSLVHNTGNTYLSWYLQKPGQSPQSLIYKVSNRASGVPDRFSGSGSGTDFTLKISRVEAEDVGVYYCGQGTQFPFTFGSGTKVEIK	4580	0.118	25800
EGFR-CD3 DuetMab with anti-CD3 variant AZ Vκ 17 + AZ VH SN79 (bispecific antibody, part only; not given: anti-EGFR arm, constant regions, V domains shown, not shown: another chain or arm of the molecule; a dimerising Fc or GST; small tags and cut ends) VH: EVQLVESGGALVKPGGSLRLSCAASGFTFSNAWMHWVRQAPGKQLEWVAQIKDRSQTYATYYAESVKGRFTISRDDSKNTLYLQMNSLKTEDTAVYYCRGVYYAVTPFDYWGQGTLVTVSS VL: DIVMTQSPLSLPVTPGEPASISCRSSQSLVHNTGNTYLSWYLQKPGQSPQSLIYKVSNRASGVPDRFSGSGSGTDFTLKISRVEAEDVGVYYCGQGTQAPFTFGSGTKVEIK	2050	0.032	15600
EGFR-CD3 DuetMab with anti-CD3 variant AZ Vκ 26 + AZ VH R82 (bispecific antibody, part only; not given: anti-EGFR arm, constant regions, V domains shown, not shown: another chain or arm of the molecule; a dimerising Fc or GST; small tags and cut ends) VH: EVQLVESGGALVKPGGSLRLSCAASGFTFTRAWMHWVRQAPGKQLEWVAQIKDRSQTYATYYAESVKGRFTISRDDSKNTLYLQMNSLKTEDTAVYYCRGVYYANTPFDYWGQGTLVTVSS VL: DIVMTQSPLSLPVTPGEPASISCRSSQSLVHNTGNTYLSWYLQKPGQSPQSLIYKVSNRASGVPDRFSGSGSGTDFTLKISRVEAEDVGVYYCGQGTQAPFSFGSGTKVEIK	411	0.00711	17300
EGFR-CD3 DuetMab with anti-CD3 variant AZ Vκ 17 + AZ VH R82 (bispecific antibody, part only; not given: anti-EGFR arm, constant regions, V domains shown, not shown: another chain or arm of the molecule; a dimerising Fc or GST; small tags and cut ends) VH: EVQLVESGGALVKPGGSLRLSCAASGFTFTRAWMHWVRQAPGKQLEWVAQIKDRSQTYATYYAESVKGRFTISRDDSKNTLYLQMNSLKTEDTAVYYCRGVYYANTPFDYWGQGTLVTVSS VL: DIVMTQSPLSLPVTPGEPASISCRSSQSLVHNTGNTYLSWYLQKPGQSPQSLIYKVSNRASGVPDRFSGSGSGTDFTLKISRVEAEDVGVYYCGQGTQAPFTFGSGTKVEIK	550	0.00928	16900
EGFR-CD3 DuetMab with anti-CD3 variant AZ Vκ 26 + AZ VH R75 (bispecific antibody, part only; not given: anti-EGFR arm, constant regions, V domains shown, not shown: another chain or arm of the molecule; a dimerising Fc or GST; small tags and cut ends) VH: EVQLVESGGALVKPGGSLRLSCAASGFTFTRAWMHWVRQAPGKQLEWVAQIKDRSQTYATYYAESVKGRFTISRDDSKNTLYLQMNSLKTEDTAVYYCRGVYYANAPFDYWGQGTLVTVSS VL: DIVMTQSPLSLPVTPGEPASISCRSSQSLVHNTGNTYLSWYLQKPGQSPQSLIYKVSNRASGVPDRFSGSGSGTDFTLKISRVEAEDVGVYYCGQGTQAPFSFGSGTKVEIK	217	0.00605	27900
